Assay results as given in patent US20230391872A1 (ANAPTYSBIO, published 2023).

Legend:
[1] = molecular target: β-galactosidase enzyme donor (ED)-tagged human BTLA on Jurkat cells (human, UniProt Q7Z6A9 31-289); experiment: cell-based or functional assay
[2] = molecular target: T1, human BTLA on cells (stably transfected 293c18 cells; human peripheral blood T and B cells) (human, UniProt Q7Z6A9 31-289); experiment: flow cytometry, DyLight 650-labeled 6G3 IgG4 on human peripheral blood CD4+ T cells
T1 construct: whole, on cells; the cells are named under assay; also called cell surface BTLA; full-length human BTLA
Method: (§1) PBMCs were washed and incubated at 2×10⁷ cells/ml in FACS buffer (PBS, 1% BSA, 0.02% sodium azide) with Human BD Fc Block (2.5 μg/1×10⁶ cells, BD Biosciences) and LIVE/DEAD® Fixable Yellow Dead Cell Stain (30 μl, ThermoFisher Scientific) for 10 minutes on ice. Cells were washed once in FACS buffer, resuspended in FACS buffer at 1×10⁷ cells/ml and the following phenotyping antibodies added: Alexa Fluor 488-anti-human CD3E clone SK7, Brilliant Violet 421-anti-human CD4 clone OKT4, Brilliant Violet 785-anti-human CD8 clone SK1, and Brilliant Violet 570-anti-human CD20 clone 2H7 (50 μl each; all from BioLegend, Inc.). […] Samples were washed twice in FACS buffer, resuspended in 150 μl/well FACS buffer, and analyzed for fluorescence on a NovoCyte Flow Cytometer (ACEA Biosciences, Inc.). Data were analyzed using NovoExpress Software (ACEA Biosciences, Inc.). Median fluorescence intensities of anti-BTLA or isotype staining on gated CD4⁺ T cells (FIG. 4), CD8⁺ T cells (FIG. 4), or CD20⁺ B cells (FIG. 4) were graphed and curves fit with log(agonist) vs. response (three parameters) least squares fit for EC₅₀ calculation in GraphPad Prism (GraphPad Software, Inc.).

[3] = molecular target: T1, human BTLA on cells (stably transfected …); experiment: flow cytometry, DyLight 650-labeled 6G3 IgG4 on human peripheral blood CD20+ B cells
Method: as §1

[4] = molecular target: T1, human BTLA on cells (stably transfected …); experiment: flow cytometry (MFI DyL650) on gated CD20+ B cells of human PBMC, DyLight 650-labelled antibody, three-parameter fit [right panel (Naive B cells]
Method: as §1, with “Human peripheral blood mononuclear cells (PBMCs) were isolated by Histopaque (Sigma-Aldrich) density-gradient centrifugation of normal donor blood obtained from the San Diego Blood Bank (San Diego, CA). PBMCs” for “PBMCs”

EC50, SHP2 recruitment PathHunter Jurkat BTLA signaling assay with U-2 OS hFcγRIa cells [1]: 0.0093 µg/mL
EC50, SHP2 recruitment PathHunter Jurkat BTLA signaling assay, soluble antibody [1]: 0.125 µg/mL
fold increase of agonist potency with cell-associated FcγRIa against the assay without FcγRIa [1]: ~13 fold
EC50 [2]: ~2400 pM
EC50 [3]: ~500 pM
EC50 [4]: 540 pM
B1: 6G3 IgG4 anti-BTLA antibody (APE10840 / APE12839 / APE13308) (antibody, V domains shown)
VH: QVQLVQSGAEVKKPGSSVKVSCKASGYVFSTSWMNWVRQAPGQGLEWMGRIYPGDADTNYVGKFKGRVTITADKSTTTAYMELSSLRSEDTAVYFCAKSGTFNFGNYRWYFDVWGKGTTVTVSS
VL: AIQLTQSPSSLSASVGDRVTITCRVSENIYSHLAWYQQKPGKAPKLLIYAATNLALGVPSRFSGSGSGTDYTLTISSLQPEDFATYYCQLFWGPPLTFGGGTKVEIKR
notes: Humanized antibody from a mouse hybridoma, tested as human IgG4 (detected with anti-human kappa); Some assays used labelled lots (DyLight 650, AF647, biotin, DyL488); also called 6G3 antibody; APE10840.03
